Measured values published in the supplement of paper PMC9170038.

Test system: MS2 coat protein
Assay: apparent KD of MS2 coat protein; higher = weaker reporter binding
Conditions: Eterna round: R107
In short: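 The buffer was 100 mM Tris-HCl pH 7.5 with 80 mM KCl and 4 mM MgCl2, used without or with constant ligand. In it, RNA switches transcribed on-chip from Illumina sequencing clusters were titrated with SNAP-549-labelled MS2 coat protein in twofold steps from 0.7 or 1.5 nM to 3 µM. Apparent KD for each design is the median of its normalised cluster binding-curve fits.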

[1] = input ligand: theophylline 20 uM
[2] = input ligand: theophylline 2 mM
[3] = input ligand: tryptophan 2.4 mM

| Sequence | apparent KD of MS2 coat protein (input ligand: arginine 13.2 mM) [nM] | apparent KD of MS2 coat protein (input ligand: none) [nM] | apparent KD of MS2 coat protein [1] [nM] | apparent KD of MS2 coat protein [2] [nM] | apparent KD of MS2 coat protein [3] [nM] |
| --- | --- | --- | --- | --- | --- |
| GCUACAUGAGGAUCACCCAUGUGUACUGAAGGAGCGGCGGAAACGCCAGGUAGGUCGCAGUAUGUGGCUCUGGGCACGAGAUGGC [SSAA NP+V+V2 #1] | 20.1 | 33.6 | 39.4 | 35.9 | 33.7 |
| GCUAGGUCUACGGCCGCCACUAGACGUGGGUAAGACAUGAGGAUCACCCAUGUACUACAGGCGAAUAGGACCGGGUAGACCUAGC [SSTB NP+V+V2 #12 Same Structure] | 58.2 | 36.4 | 55 | 46.1 | 15.1 |
| GCUCGUUGCAUGGAUACCAGUUGAUAGGCCGCCUCCGGAUACAUGAGGAUCACCCAUGUCAACCCUUGGCAGCCACCCAAUAGGG [theeternabot_exclusion_MS2_Theo_B_27] | 10.4 | – | 13.7 | – | 10.6 |
| GCUGCACAUUCGGCCGCCACUGCUGUUACAGGAAGCUAUAGCUCACAUGAGGAUCACCCAUGUCCCAGGACCGGGAAAGUAUGGA [theeternabot_sameState_MS2_Trp_B_39] | 41.2 | – | 79.2 | 74.2 | – |
| GCUGUACCAUGAAGGAGCGCUCACGCAGUUGCGGGUACAUGAGGAUCACCCAUGUUGGGUGAGCAGGUAGGUCGCAUGGUACAGC [SSAB #17] | 227 | 237 | 193 | 230 | 215 |
| GGACAACAUGAGGAUCACCCAUGUCCUGAUACCAGUCAGCGCAGUGACCCUUGGCAGCAGACGGAUACGAAAUAACUGAGAGAUA [theeternabot_sameState_MS2_Theo_A_44] | 29.2 | – | 65 | – | 62 |
| GGACCAGGGAGCGAUACCAGCUUGAGUGUGCUGGCCAGGCACAUGAGGAUCACCCAUGUAAGCCCUUGGCAGCGCUCCCUGGUCC [#1 Exclusion - Theophylline B Attempt #27 (HarryS)] | 6.87 | 9.65 | 15.3 | 13.9 | 11.1 |
| GGACUAACCAGAAGGAGCGACACAGCAGAAACUGCAAAUCCUCCGCACGAGGAUCACCCGUGUCAGGUAGGUCGCUGGUUAGUCG [ArgBX 28] | 37.4 | 49.5 | 55.9 | 71.6 | 42.7 |
| GGACUAACCAGAAGGAGCGGCACGCAGAAACUGCAAAUUCCUCCGCACGAGGAUCACCCGUGUCAGGUAGGUCGCUGGUUAGUCG [ArgBX 28] | 20.8 | 19.7 | 25.9 | 24 | 22.6 |
| GGAGGCCUUAGGGAUACCAGCUAAGUUGAGUACAUGAGGAUCACCCAUGUGUUCCCAGAGAGCCCUUGGCAGCCCUCAUCCGUUC [theeternabot_sameState_MS2_Theo_B_7] | 14.5 | – | 13.9 | – | 12.4 |
| GGAUAGAUAGGAGAUACCAGAUACAUAAACAUGAGGAUCACCCAUGUGUCUGCACUAAGUAUCCCUUGGCAGCUCGGAGAUCUGA [#17 Same State - Theophylline B] | 17.4 | – | 21.7 | – | 18.5 |
| GGAUAGGACACGGCCGCCACUACCUAGGAUACUAGCAACAUUUGGGUACACGAGGAUCACCCGUGUAGGACCGGGUGUCCUAUCG | 32.6 | 10.7 | 18.1 | 13.6 | 19.2 |
| GGAUAGGACACGGCCGCCACUAGCUAGGAUACUAGCAACAUUUCCUCACCUGAGGAUCACCCUGGUAGGACCGGGUGUCCUAUCG | 134 | 353 | 569 | 1390 | 394 |
| GGAUAGGACACGGCCGCCACUAGCUAGGAUACUAGCAACAUUUCCUCGCAUGAGGAUCACCCAUGUAGGACCGGGUGUCCUAUCG | 159 | 462 | 638 | 495 | 484 |
| GGAUAGGACACGGCCGCCACUGCCUAGGAUACUAGCAACAUUUGGGUACAUGAGGAUCACCCAUGUAGGACCGGGUGUCCUAUCG | 38.5 | – | 70.9 | 70.3 | – |
| GGAUAGGACAGAAGGAGCGGCAUGGCAGAAACUGCAAUCCUCCUACACGAGGAUCACCCGUGUCAGGUAGGUCGCUGUCCUAUCG [ArgXB 13 #Zipper #MS2Left #StaticStem #Blueprint] | 18.5 | 15.1 | 20.4 | 19 | 15 |
| GGCACAUAGUCGGCCGCCACUACUAACACCUCAGACAACAUGAGGAUCACCCAUGUUCCAGAGUGUAGGACCGGGACUAUGUGCC [Minonka] | 11.7 | – | 13.7 | 12.2 | – |
| GGCGGACUUAUAGAUACCAGCACAUGAGGAUCACCCAUGUUUGGUCGCACCUCAGUCCUGUGCCCUUGGCAGCUAUGAUAGAUUU [Leaatge] | 16.9 | – | 33.4 | – | 16.1 |

| Sequence | apparent KD of MS2 coat protein (input ligand: arginine 13.2 mM) [nM] | apparent KD of MS2 coat protein (input ligand: none) [nM] | apparent KD of MS2 coat protein [1] [nM] | apparent KD of MS2 coat protein [2] [nM] | apparent KD of MS2 coat protein [3] [nM] |
| --- | --- | --- | --- | --- | --- |
| GGCGUGGUCGGAAGGAGCGACAUGAGGAUCACCCAUGUCUCCCGUUAUGGGAGUUCCUUAGGUCAGGUAGGUCGCCGACUGCGGC [#1 Exclusion - Arginine B Attempt #22 (Inspired by Omei)] | 41.6 | 231 | 123 | 326 | 159 |
| GGCUAACAUGAGGAUCACCCAUGUAUUGAUACCAGUAUUUGAAAAUACCCUUGGCAGCAAAUGAAGAGCGUAGCAGGGUCGAUUA [theeternabot_sameState_MS2_Theo_A_7] | 10 | – | 17 | – | 12.6 |
| GGGAGGGAGGCGGCCGCCACUGAUUUUCAUAUAUAUAUAACAUGAGGAUCACCCAUGUAGAUAUACAGGACCGGGCCUUUUUUUU [aaaG] | 14.6 | – | 33.8 | 22.8 | – |
| GGGCCUAUAAGCAGGCCCACAGCGGGUGAUACCAGCAAUAAAACUUGCCCUUGGCAGCACACAGCUACAUGAGGAUCACCCAUGU [Beator] | 41.1 | 45.1 | 72.9 | 70.6 | 62.4 |
| GGGCGAGUGGACCGGCGUGCUCCGCUCCGUCGAGGACCGGUACGGCCGCCACUCGACAUGAGGAUCACCCAUGUGCGAGCUCGCG [#1 Exclusion - Tryptophan A Attempt #14 (HarryS)] | 32.7 | 77.5 | 114 | 82.4 | 86 |
| GGGCGUGUGGUGCGGCGUGUUCCGCUCCGUCGAGGACCGGUACGGCCGCCACUCGACAUGAGGAUCACCCAUGUGCGAGCGCGCG [#1 Exclusion - Tryptophan A Attempt #8 (HarryS)] | 13.2 | 11.5 | 13.2 | 11.7 | 19.2 |
| GGGUAAGAUCCGGAUACCAGCGAACAUGAGGAUCACCCAUGUGAAAUAAGAUAGACUAAACGCCCUUGGCAGCCGAAAUAGCGUU [Same State Theophylline B GF 4] | 17.9 | 46.6 | 84.7 | 48.9 | 44.1 |
| GGGUAUGAUCCGGAUACCAGCGAACAUGAGGAUCACCCAUGUGACCUAAGAUAGGCUCUACGCCCUUGGCAGCCGCGAUCGCAGA [Same State Theophylline B GF9] | 20.4 | 22.3 | 23.2 | 13.3 | 24.7 |
| GGGUAUGAUCCGGAUACCAGCGAACAUGAGGAUCACCCAUGUGACCUAAGAUAGGCUCUACGCCCUUGGCAGCCGCGAUCGCGUU [Same State Theophylline B GF8] | 21.7 | – | 32 | – | 29 |
| GGGUGGUAGGCGGCCGCCACUGAUUUUUAUAUAUAUAUAACAUGAGGAUCACCCAUGUAGAUAUGCAGGACCGGGCCUGUUGUUU [aaaM] | 21.7 | 25 | 37.8 | 46.1 | 28.3 |
| GGGUGGUAGGCGGCCGCCACUGAUUUUUAUUUAUAGAUGACAUGAGGAUCACCCAUGUUUAUAUGCAGGACCGGGCCUGUUGUGG [aaaQ] | 12 | – | 22.5 | 17.6 | – |
| GGGUGUGAUCCGGAUACCAGCGAACAUGAGGAUCACCCAUGUGACCUGAGAUCGGCUCUACGCCCUUGGCAGCCGCGAUCGCAGG [Same State Theophylline B GF12] | – | 18.8 | 105 | 37.9 | 13.1 |
| GGUCUCGAGGGCGAUACCAGCUUGAUCGUACUGGCCUGGUACAUGAGGAUCACCCAUGUAAGCCCUUGGCAGCGCGCUCGAGACC [#1 Exclusion - Theophylline B Attempt #6 (HarryS)] | 7.85 | 11 | 18.5 | 29.3 | 17 |
| GGUGUAUCCAUCGAUACCAGCCACCACCGAUAGACCACAUGAGGAUCACCCAUGUUGGGUGGCCCUUGGCAGCGGUGGCUGUGCC [Same State - Theophylline B Attempt #3 (HarryS)] | 79.9 | – | 592 | – | 353 |
| GGUUACUCUACGGCCGCCACUGAUUAAUUAUAAACCUGUACAUAAACAUGAGGAUCACCCAUGUACAGGACCGGGUAGUGUAACC [Tryptophan B 9] | 30.5 | – | 46.9 | 39.1 | – |
| GGUUGGUGUAGAGAUAUAUUGAUUACUGAAGGAGCGGGAACAAACCCAGGUAGGUCGCAGAGAUCCACAUGAGGAUCACCCAUGU [!0.N] | 35.2 | 31.6 | 58.3 | 39.3 | 41.5 |
| GGUUUGCGGCCUGAUACCAGUGAUGGAUGAACCCUAGUCAACAUGAGGAUCACCCAUGUUCACCCUUGGCAGCAGUGACGCUCGA [theeternabot_exclusion_MS2_Theo_B_34] | 43.2 | 69.7 | 78.7 | 354 | 74.1 |
| GUAAAGUAAAGAAGGAGCGUCGAAAAUGGGUAAACAUGAGGAUCACCCAUGUAAAGGGAACGACAGGUAGGUCGCUUUAUUUUAC [AstromonsSSArgB#17] | 86.7 | 199 | 223 | 284 | 189 |
